The target of data set [1] is T1, T4 DNA ligase (Enterobacteria phage T4?) (UniProt P00970).
T1 sequence: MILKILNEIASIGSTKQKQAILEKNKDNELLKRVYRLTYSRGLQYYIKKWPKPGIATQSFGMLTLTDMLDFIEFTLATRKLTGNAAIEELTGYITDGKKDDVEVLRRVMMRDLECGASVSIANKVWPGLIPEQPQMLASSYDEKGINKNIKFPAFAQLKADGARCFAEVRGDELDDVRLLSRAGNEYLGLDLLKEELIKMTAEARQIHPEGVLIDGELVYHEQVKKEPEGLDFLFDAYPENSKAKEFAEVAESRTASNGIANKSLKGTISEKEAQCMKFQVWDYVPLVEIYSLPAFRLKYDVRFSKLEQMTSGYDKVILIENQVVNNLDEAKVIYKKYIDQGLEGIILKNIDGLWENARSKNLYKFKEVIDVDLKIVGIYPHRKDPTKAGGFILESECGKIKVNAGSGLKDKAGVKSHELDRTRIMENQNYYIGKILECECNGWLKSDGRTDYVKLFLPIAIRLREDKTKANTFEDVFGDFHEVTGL

For data set [2], the target named is T1, T4 DNA ligase (Enterobacteria phage T4?). As to conditions: 5'-phosphate, 25 C.
In a further data set the target is T2, SapI (UniProt O52712).
T2 sequence: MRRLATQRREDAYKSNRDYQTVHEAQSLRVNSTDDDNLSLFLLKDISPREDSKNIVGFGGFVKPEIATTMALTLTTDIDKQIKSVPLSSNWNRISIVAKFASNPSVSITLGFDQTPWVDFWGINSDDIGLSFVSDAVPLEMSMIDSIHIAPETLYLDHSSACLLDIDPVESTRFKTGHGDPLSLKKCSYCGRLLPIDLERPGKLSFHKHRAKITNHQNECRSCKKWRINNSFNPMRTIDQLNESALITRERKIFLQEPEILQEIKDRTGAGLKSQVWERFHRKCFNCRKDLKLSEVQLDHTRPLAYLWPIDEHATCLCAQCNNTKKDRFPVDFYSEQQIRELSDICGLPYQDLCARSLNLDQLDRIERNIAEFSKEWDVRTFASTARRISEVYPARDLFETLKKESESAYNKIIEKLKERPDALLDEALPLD
Briefly: cleavage_in_vitro. The settings on record: SapI digestion giving 3-base overhang.

Like-named read-outs stand apart in the source and are kept apart here.

Regarding TNN/GNN mismatch overhang substrate, the relative ligation rate (relative to GNN/TNN) in data set [1] (stated as about 80-fold slower than 5'-G mismatch) was 0.0125. Turning to GNN/TNN mismatch overhang substrate, the relative ligation rate (fold faster than TNN/GNN) in data set [1] (ligation of edge G:T mismatch) came out at 80.

Consider “NNNCGAAGAGCTGCGATCCAGTGCGCCGTGCATTGATCAACGCAANNNNNNATCTCTCTCTTTTCCTCCTCCTCCGTTGTTGTTGTTGAGAGAGATNNNNNNTTGCGTTGATCAATGCACGGCGCACTGGATCGCAGCTCTTCG [AAA 3-base overhang substrate]”, for which the binding signal in data set [2] (correct ligations 1403.8 x10-5) came out at 99.2 % fidelity. “NNNCGAAGAGCTGCGATCCAGTGCGCCGTGCATTGATCAACGCAANNNNNNATCTCTCTCTTTTCCTCCTCCTCCGTTGTTGTTGTTGAGAGAGATNNNNNNTTGCGTTGATCAATGCACGGCGCACTGGATCGCAGCTCTTCG [TAA 3-base overhang substrate]” returned a binding signal in data set [2] (correct ligations only 209.0 x10-5) of 98.6 % fidelity. In data set [2] (correct ligations 864.7 x10-5), “NNNCGAAGAGCTGCGATCCAGTGCGCCGTGCATTGATCAACGCAANNNNNNATCTCTCTCTTTTCCTCCTCCTCCGTTGTTGTTGTTGAGAGAGATNNNNNNTTGCGTTGATCAATGCACGGCGCACTGGATCGCAGCTCTTCG [GGC 3-base overhang substrate]” displayed a binding signal of 53.6 % fidelity. For “TCAGGTNNNCGAAGAGCTGCGATCCAGTGCGCCGTGCATTGATCAACGCAANNNNNNATCTCTCTCTTTTCCTCCTCCTCCGTTGTTGTTGTTGAGAGAG [ligation library precursor (extended)]”, the activity in the data set with SapI is over 95 % cut.

(Values after US20220098577.)
